Data from article PMC6327041, “Histone H3 binding to the PHD1 domain of histone demethylase KDM5A enables active site remodeling” (Nature Communications, 2019).

How the values were obtained:
[1] = target: C-terminally 5-carboxyfluorescein (5-FAM) conjugated Ac-H3K4me3 31mer peptide; assay: fluorescence polarisation; direct FP: Ac-H3K4me3-fluorescein 31mer with varying KDM5A_(1-797); 400 µM MnCl2 and 400 µM N-OG; with 350 µM H3 10mer effector peptide; Kd read at 1 min (the signal is stable for at least 1 h)
[2] = target: C-terminally 5-carboxyfluorescein (5-FAM) conjugated Ac-H3K4me3 31mer peptide; assay: fluorescence polarisation; direct FP: Ac-H3K4me3-fluorescein 31mer with varying KDM5A_(1-797); 400 µM MnCl2 and 400 µM N-OG; no effector peptide; Kd read at 1 min (the signal decreases over time)
[3] = substrate: C[C@H](N)C(=O)N[C@@H](CCCNC(=N)N)C(=O)N[C@H](C(=O)N[C@@H](CCCC[N+](C)(C)C)C(=O)N[C@@H](CCC(N)=O)C(=O)N[C@H](C(=O)N[C@@H](C)C(=O)N[C@@H](CCCNC(=N)N)C(=O)N[C@@H](CCCCN)C(=O)N[C@@H](CO)C(=O)O)[C@@H](C)O)[C@@H](C)O; assay: KDM5A demethylation, FDH-coupled formaldehyde release assay; assay type: biochemical, human; settings: other: H3K4me3 10mer as substrate (Figure S3, response to reviewers)
Experimental: WT KDM5A1-797 was expressed in Sf21 cells following Invitrogen Bac-to-Bac baculovirus expression system protocol. KDM5A1-797 was cloned into a pFASTBAC HTA vector. Purified bacmid was transfected in Sf21 cells. Approximately 0.8 × 10^−5 cells per well of a six-well dish were allowed to attach in 2 ml of SF-900 II SFM media containing 50 U ml^−1 penicillin and 50 μg ml^−1 streptomycin. While cells attached, 8 μl of Cellfectin II reagent (Invitrogen) in 100 μl of unsupplemented Grace’s medium was mixed with ~2–5 μg of bacmid in 100 μl of unsupplemented Grace’s medium and incubated for 15–30 min at 25 °C. Once cells were attached, media was removed and cells were washed with 2 ml of Grace’s unsupplemented media. The bacmid DNA:Cellfectin mixture was then diluted to 1 ml with Grace’s unsupplemented media and added to the well. Cells with bacmid:Cellfectin II mixture were incubated for 5 h at 27 °C. After 5 h of incubation, bacmid:Cellfectin mixture was removed and replaced with 2 ml of SF-900 II SFM 50 U ml^−1 penicillin and 50 μg ml^−1 streptomycin. […]
Reactions were performed in 50 mM HEPES, 50 mM KCl, 1 mM α-ketoglutarate, 50 μM Fe(NH4)2(SO4)2, 2 mM ascorbic acid, 2 mM NAD^+ and 0.05 U FDH (Sigma) at pH 7.5 at room temperature. […] An NADH standard curve was used to convert fluorescence to concentration of product formed. […] Michaelis–Menten parameters were determined using Graphpad Prism.

Row | Binder | Kd [1] | Kd [2] | Km [3]
1 | KDM5A_(1-797) (enzyme) MAGVGPGGYAAEFVPPPECPVFEPSWEEFTDPLSFIGRIRPLAEKTGICKIRPPKDWQPPFACEVKSFRFTPRVQRLNELEAMTRVRLDFLDQLAKFWELQGSTLKIPVVERKILDLYALSKIVASKGGFEMVTKEKKWSKVGSRLGYLPGKGTGSLLKSHYERILYPYELFQSGVSLMGVQMPNLDLKEKVEPEVLSTDTQTSPEPGTRMNILPKRTRRVKTQSESGDVSRNTELKKLQIFGAGPKVVGLAMGTKDKEDEVTRRRKVTNRSDAFNMQMRQRKGTLSVNFVDLYVCMFCGRGNNEDKLLLCDGCDDSYHTFCLIPPLPDVPKGDWRCPKCVAEECSKPREAFGFEQAVREYTLQSFGEMADNFKSDYFNMPVHMVPTELVEKEFWRLVSSIEEDVIVEYGADISSKDFGSGFPVKDGRRKILPEEEEYALSGWNLNNMPVLEQSVLAHINVDISGMKVPWLYVGMCFSSFCWHIEDHWSYSINYLHWGEPKTWYGVPSHAAEQLEEVMRELAPELFESQPDLLHQLVTIMNPNVLMEHGVPVYRTNQCAGEFVVTFPRAYHSGFNQGYNFAEAVNFCTADWLPIGRQCVNHYRRLRRHCVFSHEELIFKMAADPECLDVGLAAMVCKELTLMTEEETRLRESVVQMGVLMSEEEVFELVPDDERQCSACRTTCFLSALTCSCNPERLVCLYHPTDLCPCPMQKKCLRYRYPLEDLPSLLYGVKVRAQSYDTWVSRVTEALSANFNHKKDLIELRVMLEDAEDRKYPENDLFRKLRDAVKEAETCASV | 62.5 µM | 56.9 µM | 
2 | KDM5A1-797 (Homo sapiens) (protein, KDM5A1-797 was cloned into a pFASTBAC HTA vector; His (N, cleaved yes); made in house; host or cells: Sf21 insect cells (baculovirus)) MAGVGPGGYAAEFVPPPECPVFEPSWEEFTDPLSFIGRIRPLAEKTGICKIRPPKDWQPPFACEVKSFRFTPRVQRLNELEAMTRVRLDFLDQLAKFWELQGSTLKIPVVERKILDLYALSKIVASKGGFEMVTKEKKWSKVGSRLGYLPGKGTGSLLKSHYERILYPYELFQSGVSLMGVQMPNLDLKEKVEPEVLSTDTQTSPEPGTRMNILPKRTRRVKTQSESGDVSRNTELKKLQIFGAGPKVVGLAMGTKDKEDEVTRRRKVTNRSDAFNMQMRQRKGTLSVNFVDLYVCMFCGRGNNEDKLLLCDGCDDSYHTFCLIPPLPDVPKGDWRCPKCVAEECSKPREAFGFEQAVREYTLQSFGEMADNFKSDYFNMPVHMVPTELVEKEFWRLVSSIEEDVIVEYGADISSKDFGSGFPVKDGRRKILPEEEEYALSGWNLNNMPVLEQSVLAHINVDISGMKVPWLYVGMCFSSFCWHIEDHWSYSINYLHWGEPKTWYGVPSHAAEQLEEVMRELAPELFESQPDLLHQLVTIMNPNVLMEHGVPVYRTNQCAGEFVVTFPRAYHSGFNQGYNFAEAVNFCTADWLPIGRQCVNHYRRLRRHCVFSHEELIFKMAADPECLDVGLAAMVCKELTLMTEEETRLRESVVQMGVLMSEEEVFELVPDDERQCSACRTTCFLSALTCSCNPERLVCLYHPTDLCPCPMQKKCLRYRYPLEDLPSLLYGVKVRAQSYDTWVSRVTEALSANFNHKKDLIELRVMLEDAEDRKYPENDLFRKLRDAVKEAETCASV |  |  | 770 µM
